Molecular target: T1, soluble CD4 (D1D2 domains, residues 1 to 186)
T1 construct: also called sCD4; source: Expi293F, purified (StrepTrap HP, SEC)
Experiment: cryo-EM structure; Fab, soluble SOSIP trimer and sCD4 incubated at a molar ratio of 3.6:1:3.6 Fab/Env/sCD4 at room temperature for 4 h; single-particle cryo-EM of the ternary complex
Conditions: both partners purified

B1: CG10 Fab (Fab, V domains shown)
VH: QVQLKQSGTELVRPGTSVKMSCKAAGYTFTDYWIGWVKQRPGHGLEWIGDFYPGGDYTLYSENFMGKASLTADTSSNTAYMQLSSLTSEDSAIYYCARGHYYGYSYAWFAYWGQGTLVTVSS
VL: DIVLTQSPASLAVSLGQRATISCKASQSVDYDGDSYMNWYQQKPGQPPKLLIYAASNLESGIPARFSGSGSGTDFTLNIHPVGEEDAATYYCQQSHEDPWTFGGGTMLEIK
notes: source: Expi293F, purified (Ni-NTA, SEC)
B1: binds.
